B1: mRNA-splicing (parent)
chain: AGUUGCUGCUGGGAGCUCCAGCACAGUGAAAUGGACAGAAGGGCAGAGCAA

Variants of: B1
Experiment: exon inclusion enrichment index; higher = more inclusion; WT1 exon 5 minigene, HEK293

Row | Variant | exon inclusion enrichment index
1 | G5C C6G U7C U10C A45G G46C | 3.05
2 | G5C C6G U7C U10C A45G G46U | 3.14
3 | G5C C6G U7C U10C A31U U32G | 2.24
4 | G5C C6G U7C U10C A31U U32C | 3.76
5 | G5C C6G U7C U10C A31U U32A | 0.77
6 | G5C C6G U7C U10C G11C G12C | 1.04
7 | G5C C6G U7C U10C G11C G12A | 1.1
8 | G5C C6G U7C U10C G11C G12U | 0.699
9 | G5C C6G U7C U10C G11A G12C | 1.51
10 | G5C C6G U7C U10C G11A G12A | 1.91
11 | G5C C6G U7C U10C G11A G12U | 1.83
12 | G5C C6G U7C U10C A25C G26U | 4.06
13 | G5C C6G U7C U10C A25C G26A | 4.67
14 | G5C C6G U7C U10C A25C G26C | 4.35
15 | G5C C6G U7C U10C A30C A31U | 3.41
16 | G5C C6G U7C U10C A30C A31C | 3.86
17 | G5C C6G U7C U10C A30C A31G | 4.15
18 | G5C C6G U7C U10C C22U A23C | 2.02
19 | G5C C6G U7C U10C C22U A23U | 2.76
20 | G5C C6G U7C U10C C22U A23G | 3.6
21 | G5C C6G U7C U10C A35C C36G | 2.6
22 | G5C C6G U7C U10C A35C C36A | 2.13
23 | G5C C6G U7C U10C A35C C36U | 0.625
24 | G5C C6G U7C U10C C18A C19G | 1.5

Row | Variant | exon inclusion enrichment index
25 | G5C C6G U7C U10C C18A C19U | 0.321
26 | G5C C6G U7C U10C C18A C19A | 1.63
27 | G5C C6G U7C | 0.636
28 | G5C C6G U7C U10C A20U G21A | 2.15
29 | G5C C6G U7C U10C A20U G21C | 2.93
30 | G5C C6G U7C U10C A20U G21U | 2.35
31 | G5C C6G U7C U10C A29C A30U | 3.02
32 | G5C C6G U7C U10C A29C A30G | 5.17
33 | G5C C6G U7C U10C A29C A30C | 3.82
34 | G5C C6G U7C U10C C19G A20C | 2.89
35 | G5C C6G U7C U10C C19G A20U | 3.16
36 | G5C C6G U7C U10C C19G A20G | 2.13
37 | G5C C6G U7C U10C A25U | 3.84
38 | G5C C6G U7C U10C A25C | 4.98
39 | G5C C6G U7C U10C A25G | 5.05
40 | G5C C6G U7C U10C A14G G15U | 1.21
41 | G5C C6G U7C U10C A14G G15C | 1.64
42 | G5C C6G U7C U10C A14G G15A | 2.07
43 | G5C C6G U7C U10C A40U G41A | 0.26
44 | G5C C6G U7C U10C A40U G41C | 3.11
45 | G5C C6G U7C U10C A40U G41U | 2.15
46 | G5C C6G U7C U10C C18A | 3.25
47 | G5C C6G U7C U10C C18G | 3.71
48 | G5C C6G U7C U10C C18U | 3.14

Row | Variant | exon inclusion enrichment index
49 | G5C C6G U7C U10C A20C | 3.4
50 | G5C C6G U7C U10C A20G | 0.887
51 | G5C C6G U7C U10C A20U | 3.58
52 | G5C C6G U7C U10C A39G A40C | 3.86
53 | G5C C6G U7C U10C A39G A40G | 0.367
54 | G5C C6G U7C U10C A39G A40U | 0.671
55 | G5C C6G U7C U10C C36G A37C | 1.47
56 | G5C C6G U7C U10C C36G A37G | 1.19
57 | G5C C6G U7C U10C C36G A37U | 2.09
58 | G5C C6G G8C C9U U10C | 3.14
59 | G5C C6G U7C U10C A45U G46A | 2.95
60 | G5C C6G U7C U10C A45U G46U | 1.75
61 | G5C C6G U7C U10C A45U G46C | 2.33
62 | G5C C6G U7C U10C A40U | 2.71
63 | G5C C6G U7C U10C A40G | 3.16
64 | G5C C6G U7C U10C A40C | 3.66
65 | G5C C6G U7C G8C C9U U10C | 2.8
66 | G5C C6G U7C U10C A23U | 2.51
67 | G5C C6G U7C U10C A23G | 3.57
68 | G5C C6G U7C U10C A23C | 2.88
69 | G5C C6G U7A G8A U10C | 2.49
70 | G5C C6G U7A G8A U10A | 0.321
71 | G5C C6G U7C U10C A47G G48U | 0.733
72 | G5C C6G U7C U10C A47G G48C | 2.32

Row | Variant | exon inclusion enrichment index
73 | G5C C6G U7C U10C A47G G48A | 2.55
74 | G5C C6A U7C G8U C9U U10A | 0.0134
75 | G5C C6A U7G G8C C9U U10C | 1.36
76 | G5C C6G U7C U10C C16G U17G | 1.27
77 | G5C C6G U7C U10C C16G U17A | 4.71
78 | G5C C6G U7C U10C C16G U17C | 2.62
79 | G5C C6G U7A G8C C9U U10C | 3.05
80 | G5C C6G U7C U10C C19U A20G | 1.14
81 | G5C C6G U7C U10C C19U A20U | 1.48
82 | G5C C6G U7C U10C C19U A20C | 3.09
83 | G5C C6G U7C U10C A45C G46C | 2.31
84 | G5C C6G U7C U10C A45C G46A | 2.12
85 | G5C C6G U7C U10C A45C G46U | 1.87
86 | G5C C6G U7C U10C C44A A45U | 5.86
87 | G5C C6G U7C U10C C44A A45G | 5.42
88 | G5C C6G U7C U10C C44A A45C | 4.3
89 | G5C C6G U7C G8A C9U U10C | 3.11
90 | G5C C6G U7C G8C C9G U10C | 3.59
91 | G5C C6G U7C G8A U10A | 0.449
92 | G5C C6G U7C G8A U10C | 3.31
93 | G5C C6G U7C U10C C19U | 0.492
94 | G5C C6G U7C U10C C19A | 2.65
95 | G5C C6G U7C U10C C19G | 3.72
96 | G5C C6G U7C G8C U10C | 2.87

Row | Variant | exon inclusion enrichment index
97 | G5C C6G U7C U10C C44U A45G | 2.53
98 | G5C C6G U7C U10C C44U A45U | 2.84
99 | G5C C6G U7C U10C C44U A45C | 4.13
100 | G5C C6G U7C U10C A23C C24U | 2.07
101 | G5C C6G U7C U10C A23C C24A | 3.49
102 | G5C C6G U7C U10C A23C C24G | 5.29
103 | G5C C6G U7C U10C A31C U32A | 2.89
104 | G5C C6G U7C U10C A31C U32G | 3.82
105 | G5C C6G U7C U10C A31C U32C | 3.85
106 | G5C C6A U7C G8C U10A | 0.494
107 | G5C C6G U7C U10C A37C G38C | 2.99
108 | G5C C6G U7C U10C A37C G38U | 2.1
109 | G5C C6G U7C U10C A37C G38A | 2.71
110 | G5C C6G U7C U10C A37U | 3.22
111 | G5C C6G U7C U10C A37G | 4.39
112 | G5C C6G U7C U10C A37C | 4.16
113 | G5C C6G | 0.0268
114 | G5C C6G U7C U10C C18U C19G | 2.78
115 | G5C C6G U7C U10C C18U C19A | 0.76
116 | G5C C6G U7C U10C C18U C19U | 0.197
117 | G5C C6G U7C G8U C9G U10C | 2.53
118 | G5C C6G G8U C9U | 1.08
119 | G5C C6G U7C U10C A40C G41A | 1.9
120 | G5C C6G U7C U10C A40C G41U | 1.83

Row | Variant | exon inclusion enrichment index
121 | G5C C6G U7C U10C A40C G41C | 3.53
122 | G5C C6G U7C U10C G12C G13U | 0.128
123 | G5C C6G U7C U10C G12C G13C | 0.519
124 | G5C C6G U7C U10C G12C G13A | 0.8
125 | G5C C6G U7C U10C A29G | 3.72
126 | G5C C6G U7C U10C A29C | 3.11
127 | G5C C6G U7C U10C A29U | 1.68
128 | G5C C6G U7C U10C A40G G41C | 3.83
129 | G5C C6G U7C U10C A40G G41U | 3.4
130 | G5C C6G U7C U10C A40G G41A | 1.99
131 | G5C C6G U7C U10C A25U G26U | 3.03
132 | G5C C6G U7C U10C A25U G26A | 3.89
133 | G5C C6G U7C U10C A25U G26C | 3.41
134 | G5C C6G U7A G8U C9A | 1.06
135 | G5C C6G U7C U10C A30G | 3.89
136 | G5C C6G U7C U10C A30C | 3.57
137 | G5C C6G U7C U10C A30U | 3.07
138 | G5C C6G G8A U10A | 0.226
139 | G5C C6G G8A U10C | 2.37
140 | G5C C6G U7C U10C A23U C24G | 3.71
141 | G5C C6G U7C U10C A23U C24A | 2.3
142 | G5C C6G U7C U10C A23U C24U | 0.822
143 | G5C C6G G8U U10C | 2.67
144 | G5C C6G U7C U10C A30G A31U | 1.7

Row | Variant | exon inclusion enrichment index
145 | G5C C6G U7C U10C A30G A31C | 0.674
146 | G5C C6G U7C U10C A30G A31G | 1.71
147 | G5C C6G U7C U10C A29G A30U | 1.79
148 | G5C C6G U7C U10C A29G A30C | 2.29
149 | G5C C6G U7C U10C A29G A30G | 3.01
150 | G5C C6G U7C U10C C24A A25U | 2.85
151 | G5C C6G U7C U10C C24A A25G | 3.65
152 | G5C C6G U7C U10C C24A A25C | 4.48
153 | G5C C6G U7C U10C C18G C19A | 4.24
154 | G5C C6G U7C U10C C18G C19U | 1.44
155 | G5C C6G U7C U10C C18G C19G | 4.32
156 | G5C C6G U7C U10C C16A U17C | 4.04
157 | G5C C6G U7C U10C C16A U17G | 3.25
158 | G5C C6G U7C U10C C16A U17A | 4.02
159 | G5C C6G U7C U10C A29U A30U | 1.81
160 | G5C C6G U7C U10C A29U A30G | 3.83
161 | G5C C6G U7C U10C A29U A30C | 3.05
162 | G5C C6A U7G G8A U10A | 0.0223
163 | G5C C6A U7G U10A | 0.0115
164 | G5C C6A U7G U10C | 0.429
165 | G5C C6G U7C U10C A35G C36A | 2.07
166 | G5C C6G U7C U10C A35G C36U | 0.0687
167 | G5C C6G U7C U10C A35G C36G | 0.751

— the RNAGym collection of RNA variant scans (doi:10.1101/gr.219683.116)
